Results from PMC4843846, “Towards “bionic” proteins: replacement of continuous sequences from HIF-1α with proteomimetics to create functional p300 binding HIF-1α mimics” (Chemical Communications (Cambridge, England), 2016).
Like-named read-outs stand apart in the source and are kept apart here. Each block holds one molecule with its values, some of them ahead of it. Starred links: 1 amine or outer side, 2 acyl side, 3 side chain; linkers in the order of their positions; H or OH if unused. Non-standard residues stand in square brackets, D forms with d. Residues, ends and D or L forms follow the SMILES beside them. No end group written: not given here. *: point of attachment. PEG24 = NCCOCCOCCOCCOCCOCCOCCOCCOCCOCCOCCOCCOCCOCCOCCOCCOCCOCCOCCOCCOCCOCCOCCOCCOCCC(=O)O; FITC = O=C1OC2(c3ccc(O)cc3Oc3cc(O)ccc32)c2ccc(NC(=S)*)cc21; PEG12 = NCCOCCOCCOCCOCCOCCOCCOCCOCCOCCOCCOCCOCCC(=O)O; 4Abz(3-OiBu) = CC(C)COc1cc(C(=O)[*:2])ccc1N[*:1]; PEG8 = NCCOCCOCCOCCOCCOCCOCCOCCOCCC(=O)O; X1 = CC(C)Oc1cc(C(=O)[*:2])ccc1N[*:1]; Ahx = NCCCCCC(=O)O

How the values were obtained:
p300 [1] = target: T1, p300 (Homo sapiens, UniProt Q09472); assay: fluorescence anisotropy direct binding to p300; set-up: made in house; settings: fluorescein-labelled conjugates
Experimental: The hybrids 2 and 3a–c were then tested in a previously described fluorescence anisotropy p300/HIF-1α competition and p300 binding assays respectively (Fig. 2a).[33]
Fig. 2 Biophysical screening of HIF-1α peptides and hybrids, HIF-1α794–826, 2 and 3a–c (a) fluorescence anisotropy (FA) competition data for inhibition of p300/FITC-HIF-1α C-TAD for HIF-1α794–826 and 2 (b) (FA) binding data for 3a–c to p300 (schematic structure shown below).
Binding assays and protein expression were carried out as previously reported. 2, 3
The helix 2-3 peptide and the helix 2-extended peptide were purchased from Proteogenix,
France and the sequences shown below.
(1 picture or pasted object on this page, not shown here)
Target sequence in this assay (Q09472 whole entry, species assumed): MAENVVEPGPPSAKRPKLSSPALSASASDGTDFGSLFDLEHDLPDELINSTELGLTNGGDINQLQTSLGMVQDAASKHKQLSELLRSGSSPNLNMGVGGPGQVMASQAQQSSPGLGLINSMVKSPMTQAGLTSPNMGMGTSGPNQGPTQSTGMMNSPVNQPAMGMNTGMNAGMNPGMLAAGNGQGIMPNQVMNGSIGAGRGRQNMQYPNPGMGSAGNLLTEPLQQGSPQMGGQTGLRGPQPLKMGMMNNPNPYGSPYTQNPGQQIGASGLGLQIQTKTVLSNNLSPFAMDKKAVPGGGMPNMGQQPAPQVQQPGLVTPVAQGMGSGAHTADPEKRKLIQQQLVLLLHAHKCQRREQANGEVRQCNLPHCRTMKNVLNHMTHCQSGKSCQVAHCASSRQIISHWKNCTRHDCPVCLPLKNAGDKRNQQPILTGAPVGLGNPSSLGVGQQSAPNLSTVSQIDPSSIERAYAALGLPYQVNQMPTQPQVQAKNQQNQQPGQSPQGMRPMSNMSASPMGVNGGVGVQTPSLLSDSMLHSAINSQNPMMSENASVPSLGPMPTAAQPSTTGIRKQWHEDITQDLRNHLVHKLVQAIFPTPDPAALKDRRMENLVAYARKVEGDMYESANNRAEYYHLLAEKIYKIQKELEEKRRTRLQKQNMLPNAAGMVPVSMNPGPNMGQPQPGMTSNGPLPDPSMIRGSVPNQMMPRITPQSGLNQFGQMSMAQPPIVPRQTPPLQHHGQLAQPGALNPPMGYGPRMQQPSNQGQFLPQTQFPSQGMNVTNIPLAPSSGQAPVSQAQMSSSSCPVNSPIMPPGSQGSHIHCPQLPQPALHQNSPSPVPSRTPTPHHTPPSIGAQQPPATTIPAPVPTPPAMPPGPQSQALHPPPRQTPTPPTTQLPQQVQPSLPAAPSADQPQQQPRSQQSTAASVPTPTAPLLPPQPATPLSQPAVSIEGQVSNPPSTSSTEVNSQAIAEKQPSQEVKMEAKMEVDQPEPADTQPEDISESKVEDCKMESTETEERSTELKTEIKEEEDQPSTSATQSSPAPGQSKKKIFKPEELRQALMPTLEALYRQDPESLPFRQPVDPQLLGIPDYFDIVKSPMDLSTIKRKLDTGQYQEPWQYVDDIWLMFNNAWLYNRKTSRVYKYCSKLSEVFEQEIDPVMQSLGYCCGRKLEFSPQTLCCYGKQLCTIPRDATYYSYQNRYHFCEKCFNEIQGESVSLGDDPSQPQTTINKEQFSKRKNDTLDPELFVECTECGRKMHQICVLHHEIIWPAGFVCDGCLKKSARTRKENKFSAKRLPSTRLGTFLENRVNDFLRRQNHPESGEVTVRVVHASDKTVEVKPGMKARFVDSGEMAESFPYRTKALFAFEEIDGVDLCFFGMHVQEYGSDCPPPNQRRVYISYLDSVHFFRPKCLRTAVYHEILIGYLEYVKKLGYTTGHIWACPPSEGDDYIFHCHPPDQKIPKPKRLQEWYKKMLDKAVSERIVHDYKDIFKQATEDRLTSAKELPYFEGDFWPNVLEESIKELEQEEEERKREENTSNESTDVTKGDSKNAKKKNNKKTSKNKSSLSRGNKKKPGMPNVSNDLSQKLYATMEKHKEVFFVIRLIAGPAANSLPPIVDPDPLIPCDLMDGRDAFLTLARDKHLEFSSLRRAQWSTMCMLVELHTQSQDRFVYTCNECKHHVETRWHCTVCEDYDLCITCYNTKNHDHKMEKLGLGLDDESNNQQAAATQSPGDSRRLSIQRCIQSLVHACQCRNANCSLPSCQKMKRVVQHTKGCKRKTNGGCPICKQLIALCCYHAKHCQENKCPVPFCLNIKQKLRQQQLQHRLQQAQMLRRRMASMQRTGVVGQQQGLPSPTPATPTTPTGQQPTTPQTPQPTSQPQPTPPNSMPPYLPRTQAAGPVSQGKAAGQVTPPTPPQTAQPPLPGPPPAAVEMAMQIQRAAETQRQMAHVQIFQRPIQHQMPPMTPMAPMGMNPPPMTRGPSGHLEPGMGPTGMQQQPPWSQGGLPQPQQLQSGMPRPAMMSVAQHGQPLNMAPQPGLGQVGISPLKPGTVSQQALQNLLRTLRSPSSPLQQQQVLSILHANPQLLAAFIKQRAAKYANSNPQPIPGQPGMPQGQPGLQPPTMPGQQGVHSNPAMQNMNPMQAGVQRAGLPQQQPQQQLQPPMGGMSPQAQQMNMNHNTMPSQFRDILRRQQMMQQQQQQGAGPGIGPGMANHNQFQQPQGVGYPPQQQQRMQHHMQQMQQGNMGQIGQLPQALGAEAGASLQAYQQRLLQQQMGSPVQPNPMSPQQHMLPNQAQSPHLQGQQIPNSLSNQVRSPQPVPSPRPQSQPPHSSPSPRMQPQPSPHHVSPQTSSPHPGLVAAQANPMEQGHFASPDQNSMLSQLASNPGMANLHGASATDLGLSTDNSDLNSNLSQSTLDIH

p53/hDM2 interaction = assay: fluorescence anisotropy competition assay p53/hDM2; format: binding
Source text: At first the lower inhibitory potency of both HIF-1α794–826 and hybrid 2 in comparison to helix mimetic 1 (9.2(±0.9) μM) which we determined previously,[33] might seem counterintuitive. One explanation that might account for this observation is that there may be a non-specific component to PPI inhibition associated with the aromatic oligoamide helix mimetic 1 (supported in part by a non-unity Hill co-efficient for the curve fitting, a property not observed for 2). […] We therefore performed further biophysical analysis. Although we illustrated previously that inhibition of HIF-1α/p300 by 1 was specific to the scaffold and selective in comparison to the eIF4E/4G interaction,[33] we expanded the range of assays here. […] Thus, by adding native amino acid residues from the HIF-1α sequence to the core helix mimetic 1 in hybrid 2, the specificity and selectivity of binding towards target interactions was improved.
Fig. 3 Biophysical screening of helix mimetic 1 and hybrid 2 to profile selectivity; FA competition data for inhibition of p53/hDM2.

HIF-1α/p300 interaction = target: T2, HIF-1α/p300 interaction (Homo sapiens, UniProt Q09472); set-up: method as in 2 sources, ref 33 = [33]; PMID 24782431; doi:10.1002/cbic.201400009; Burslem G. M. Kyle H. F. Breeze A. L. Edwards T. A. Nelson A. Warriner S. L. Wilson A. J. ChemBioChem 2014 15 1083 1087 24782431 10.1002/cbic.201400009 PMC4159589 ||| ref 32 = [32]; PMID 26135796; doi:10.1039/c5mb00284b; Kyle H. F. Wickson K. F. Stott J. Burslem G. M. Breeze A. L. Tiede C. Tomlinson D. C. Warriner S. L. Nelson A. Wilson A. J. Edwards T. A. Mol. BioSyst. 2015 11 2738 2749 26135796 10.1039/c5mb00284b; settings: fluorescence anisotropy competition; prior truncation studies; read-out: IC50, inhibition of the HIF-1α/p300 interaction by HIF-1α peptides; cited from earlier work
T2 construct: made in house

p300 [2] = target: T1, p300; assay: fluorescence anisotropy; settings: cited from earlier work
Target sequence in this assay (Q09472 2-2414): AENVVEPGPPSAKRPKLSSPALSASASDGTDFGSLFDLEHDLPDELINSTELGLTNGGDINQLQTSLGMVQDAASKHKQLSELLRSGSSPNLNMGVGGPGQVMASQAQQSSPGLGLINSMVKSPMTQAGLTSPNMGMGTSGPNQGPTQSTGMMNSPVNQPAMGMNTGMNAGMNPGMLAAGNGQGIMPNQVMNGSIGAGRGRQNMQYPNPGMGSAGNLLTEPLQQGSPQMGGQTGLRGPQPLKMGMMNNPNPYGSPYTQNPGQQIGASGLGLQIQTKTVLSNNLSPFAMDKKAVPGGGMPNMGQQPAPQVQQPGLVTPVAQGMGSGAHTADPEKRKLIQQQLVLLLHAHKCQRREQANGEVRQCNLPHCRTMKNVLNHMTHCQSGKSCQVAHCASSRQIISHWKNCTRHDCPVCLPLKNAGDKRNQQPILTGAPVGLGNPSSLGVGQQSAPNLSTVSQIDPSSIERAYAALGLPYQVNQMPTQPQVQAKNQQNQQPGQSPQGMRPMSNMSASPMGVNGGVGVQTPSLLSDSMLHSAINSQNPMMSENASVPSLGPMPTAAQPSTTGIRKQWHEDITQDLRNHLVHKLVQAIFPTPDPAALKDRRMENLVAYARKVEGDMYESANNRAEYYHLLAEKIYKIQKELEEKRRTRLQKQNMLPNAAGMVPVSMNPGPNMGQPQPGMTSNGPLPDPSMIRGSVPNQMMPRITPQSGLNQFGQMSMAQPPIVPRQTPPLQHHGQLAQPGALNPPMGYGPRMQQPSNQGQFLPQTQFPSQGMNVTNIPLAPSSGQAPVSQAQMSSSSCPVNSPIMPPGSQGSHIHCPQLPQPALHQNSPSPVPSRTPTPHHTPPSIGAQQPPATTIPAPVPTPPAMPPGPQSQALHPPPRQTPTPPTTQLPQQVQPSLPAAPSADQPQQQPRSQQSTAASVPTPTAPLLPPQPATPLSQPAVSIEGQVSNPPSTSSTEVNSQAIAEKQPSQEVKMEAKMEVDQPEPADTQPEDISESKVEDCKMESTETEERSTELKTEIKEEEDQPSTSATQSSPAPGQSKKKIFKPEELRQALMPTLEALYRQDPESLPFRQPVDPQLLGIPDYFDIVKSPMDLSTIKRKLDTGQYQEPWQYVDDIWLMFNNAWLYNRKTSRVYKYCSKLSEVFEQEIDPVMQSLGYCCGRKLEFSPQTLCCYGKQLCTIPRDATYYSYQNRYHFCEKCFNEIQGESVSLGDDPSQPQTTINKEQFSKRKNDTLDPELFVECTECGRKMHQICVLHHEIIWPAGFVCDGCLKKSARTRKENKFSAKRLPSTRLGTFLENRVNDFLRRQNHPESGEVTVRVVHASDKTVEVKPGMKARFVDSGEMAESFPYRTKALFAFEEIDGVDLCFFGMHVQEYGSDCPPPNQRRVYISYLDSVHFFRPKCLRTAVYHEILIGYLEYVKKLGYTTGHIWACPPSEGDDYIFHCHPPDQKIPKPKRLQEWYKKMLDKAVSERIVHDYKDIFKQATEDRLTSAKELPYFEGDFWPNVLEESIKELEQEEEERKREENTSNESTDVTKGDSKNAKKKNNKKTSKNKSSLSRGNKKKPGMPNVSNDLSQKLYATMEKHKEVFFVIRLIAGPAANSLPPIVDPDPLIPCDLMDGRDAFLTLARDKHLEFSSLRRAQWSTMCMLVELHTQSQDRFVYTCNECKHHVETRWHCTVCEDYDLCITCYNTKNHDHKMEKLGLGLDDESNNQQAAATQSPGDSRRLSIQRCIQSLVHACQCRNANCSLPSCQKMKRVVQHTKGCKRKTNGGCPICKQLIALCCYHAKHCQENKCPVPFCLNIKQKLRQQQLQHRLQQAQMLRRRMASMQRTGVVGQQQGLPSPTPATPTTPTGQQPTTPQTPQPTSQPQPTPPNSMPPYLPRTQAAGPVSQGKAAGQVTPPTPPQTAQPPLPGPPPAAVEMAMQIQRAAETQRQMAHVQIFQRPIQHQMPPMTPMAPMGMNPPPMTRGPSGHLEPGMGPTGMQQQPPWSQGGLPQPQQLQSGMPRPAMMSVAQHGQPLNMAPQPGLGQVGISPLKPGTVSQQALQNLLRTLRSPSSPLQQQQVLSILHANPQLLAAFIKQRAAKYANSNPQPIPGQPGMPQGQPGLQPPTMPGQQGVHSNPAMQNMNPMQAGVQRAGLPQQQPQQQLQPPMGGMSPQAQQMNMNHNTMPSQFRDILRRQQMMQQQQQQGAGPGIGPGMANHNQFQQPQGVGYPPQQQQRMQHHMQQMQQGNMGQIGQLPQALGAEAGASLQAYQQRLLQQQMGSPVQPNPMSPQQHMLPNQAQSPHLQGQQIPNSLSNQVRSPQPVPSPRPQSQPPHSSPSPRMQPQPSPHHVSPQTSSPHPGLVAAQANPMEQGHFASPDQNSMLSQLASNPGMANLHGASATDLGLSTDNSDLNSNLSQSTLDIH

p300 [3] = target: T1, p300; set-up: made in house; settings: fluorescence anisotropy direct binding; cited from earlier work
Source text: A requirement for optimal linker length is supported by the fact that as the length of the PEG linker in 3a–c increases, so does binding affinity. In spite of the weaker binding affinities observed for 3a–c, the weak binding for HIF794–804 (helix 2) and HIF816– ...
Target sequence in this assay (Q09472 whole entry, species assumed): as the sequence (Q09472 whole entry, species assumed) above

p300 [4] = target: T1, p300; assay: fluorescence anisotropy competition; settings: cited from earlier work
Target sequence in this assay (Q09472 2-2414): as the sequence (Q09472 2-2414) above

[5] = target: HIF-1α C-TAD 794-826 (Homo sapiens) (UniProt Q16665); assay: fluorescence anisotropy; settings: cited from earlier work

T2 sequence (Q09472 330-420 limits assumed): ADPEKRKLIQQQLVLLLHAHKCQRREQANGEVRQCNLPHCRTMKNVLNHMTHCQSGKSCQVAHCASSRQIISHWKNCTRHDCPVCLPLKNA
Chain of p300 (from UniProt Q09472) (Q09472 2-2414): as the sequence (Q09472 2-2414) above

Kd (p300 [1]): > 200 µM
Molecule: CC(C)C[C@H](NC(=O)[C@H](C)NC(=O)[C@H](CCCNC(=N)N)NC(=O)[C@H](CC(C)C)NC(=O)[C@H](CC(C)C)NC(=O)[C@H](CCC(=O)O)NC(=O)[C@H](CCC(=O)O)NC(=O)CCOCCOCCOCCOCCOCCOCCOCCOCCNC(=O)[C@H](C)NC(=O)[C@H](CC(N)=O)NC(=O)[C@@H](NC(=O)[C@H](CCC(=O)O)NC(=O)[C@H](CS)NC(=O)[C@H](CC(=O)O)NC(=O)[C@H](Cc1ccc(O)cc1)NC(=O)[C@H](CO)NC(=O)[C@@H](NC(=O)[C@H](CC(C)C)NC(=O)[C@H](CCC(N)=O)NC(=O)CCCCCNC(=S)Nc1ccc2c(c1)C(=O)OC21c2ccc(O)cc2Oc2cc(O)ccc21)[C@@H](C)O)C(C)C)C(=O)N[C@@H](CC(=O)O)C(=O)N[C@@H](CCC(N)=O)C(=O)N[C@H](C(=O)N[C@@H](CC(N)=O)C(N)=O)C(C)C [3a] ({FITC-Ahx}-QLTSYDCEVNA[PEG8]EELLRALDQVN-NH2)

Kd (p300 [1]): > 200 µM
Molecule: CC(C)C[C@H](NC(=O)[C@H](C)NC(=O)[C@H](CCCNC(=N)N)NC(=O)[C@H](CC(C)C)NC(=O)[C@H](CC(C)C)NC(=O)[C@H](CCC(=O)O)NC(=O)[C@H](CCC(=O)O)NC(=O)CCOCCOCCOCCOCCOCCOCCOCCOCCOCCOCCOCCOCCNC(=O)[C@H](C)NC(=O)[C@H](CC(N)=O)NC(=O)[C@@H](NC(=O)[C@H](CCC(=O)O)NC(=O)[C@H](CS)NC(=O)[C@H](CC(=O)O)NC(=O)[C@H](Cc1ccc(O)cc1)NC(=O)[C@H](CO)NC(=O)[C@@H](NC(=O)[C@H](CC(C)C)NC(=O)[C@H](CCC(N)=O)NC(=O)CCCCCNC(=S)Nc1ccc2c(c1)C(=O)OC21c2ccc(O)cc2Oc2cc(O)ccc21)[C@@H](C)O)C(C)C)C(=O)N[C@@H](CC(=O)O)C(=O)N[C@@H](CCC(N)=O)C(=O)N[C@H](C(=O)N[C@@H](CC(N)=O)C(N)=O)C(C)C [3b] ({FITC-Ahx}-QLTSYDCEVNA[PEG12]EELLRALDQVN-NH2)

Kd (p300 [1]): 144 µM
Molecule: CC(C)C[C@H](NC(=O)[C@H](C)NC(=O)[C@H](CCCNC(=N)N)NC(=O)[C@H](CC(C)C)NC(=O)[C@H](CC(C)C)NC(=O)[C@H](CCC(=O)O)NC(=O)[C@H](CCC(=O)O)NC(=O)CCOCCOCCOCCOCCOCCOCCOCCOCCOCCOCCOCCOCCOCCOCCOCCOCCOCCOCCOCCOCCOCCOCCOCCOCCNC(=O)[C@H](C)NC(=O)[C@H](CC(N)=O)NC(=O)[C@@H](NC(=O)[C@H](CCC(=O)O)NC(=O)[C@H](CS)NC(=O)[C@H](CC(=O)O)NC(=O)[C@H](Cc1ccc(O)cc1)NC(=O)[C@H](CO)NC(=O)[C@@H](NC(=O)[C@H](CC(C)C)NC(=O)[C@H](CCC(N)=O)NC(=O)CCCCCNC(=S)Nc1ccc2c(c1)C(=O)OC21c2ccc(O)cc2Oc2cc(O)ccc21)[C@@H](C)O)C(C)C)C(=O)N[C@@H](CC(=O)O)C(=O)N[C@@H](CCC(N)=O)C(=O)N[C@H](C(=O)N[C@@H](CC(N)=O)C(N)=O)C(C)C [3c] ({FITC-Ahx}-QLTSYDCEVNA[PEG24]EELLRALDQVN-NH2)

Molecule: CC[C@H](C)[C@H](NC(=O)[C@@H]1CCCN1C(=O)[C@H](C)NC(=O)[C@H](CC(N)=O)NC(=O)[C@@H](NC(=O)[C@H](CCC(=O)O)NC(=O)[C@H](CO)NC(=O)[C@H](Cc1ccc(O)cc1)NC(=O)[C@H](CO)NC(=O)[C@@H](NC(=O)[C@H](CC(C)C)NC(=O)[C@H](CCC(N)=O)NC(C)=O)[C@@H](C)O)C(C)C)C(=O)N[C@@H](CCC(N)=O)C(=O)N[C@@H](CO)C(=O)N[C@@H](CCCNC(=N)N)C(=O)N[C@@H](CC(N)=O)C(=O)N[C@@H](CC(C)C)C(=O)N[C@@H](CC(C)C)C(=O)N[C@@H](CCC(N)=O)C(=O)NCC(=O)NCC(=O)Nc1ccc(C(=O)Nc2ccc(C(=O)Nc3ccc(C(=O)NCC(=O)O)cc3OC(C)C)cc2OCC(C)C)cc1OCC(C)C [compound 2] (Ac-QLTSYSEVNAPIQSRNLLQGG[4Abz(3-OiBu)][4Abz(3-OiBu)][X1]G-OH)
IC50 (p53/hDM2 interaction): > 100 µM

Molecule: Ac-LGQSMDESGLPQLTSYDCEVNAPIQGSRNLLQGEELLRALDQVN-NH2 [HIF-1α782–826, 42 residue HIF-1α C-TAD peptide]
IC50 (HIF-1α/p300 interaction): 0.59 µM

Molecule: Ac-QLTSYDCEVNAPIQGSRNLLQ-NH 2 (Ac-QLTSYDCEVNAPIQGSRNLLQ-NH2) [HIF-1α794–815, peptide comprising the same residues as the peptidic region of hybrid 2]
IC50 (HIF-1α/p300 interaction): > 500 µM

Molecule: FITC-HIF-1α794-826 794-826 (from UniProt Q16665)
Kd (p300 [2]): 6.74 µM

Molecule: FITC-HIF-1α794–826: FITC-labelled HIF-1α794–826 peptide ({FITC}-QLTSYDCEVNAPIQGSRNLLQGEELLRALDQVN; UniProt Q16665 794-826, looked up, fragment)
Kd (p300 [3]): 6.74 ± 0.54 µM

Molecule: HIF-1α794-815 794-815 (from UniProt Q16665)
IC50 (p300 [4]): > 500 µM

Molecule: HIF-1α794-826 794-826 (from UniProt Q16665)
IC50 (p300 [4]): 89 µM

Molecule: p300 (from UniProt Q09472)
Kd [5]: 6.74 µM
